From publication PMC8716928, “Effect of Mutations in GvpJ and GvpM on Gas Vesicle Formation of Halobacterium salinarum” (Frontiers in Microbiology, 2021)

B1: Fragment A1–22 of GvpA, split-GFP fusion (peptide, UniProt P08958 1-22, looked up)
chain: MAQPDSSGLAEVLDRVLDKGVV
notes: GvpA, p-vac region of Hbt. salinarum PHH1, first 22 aa including α-helix 1; construct of Völkner et al. 2020; source: Hfx. volcanii transformant, in cells
B2: Fragment M1–25 of GvpM, split-GFP fusion of Figure 7 (peptide, UniProt P24377 1-25, looked up)
chain: MEPTKDETHAIVEFVDVLLRDGAVI
notes: GvpM, p-vac region of Hbt. salinarum PHH1, N-terminal 25 aa; also called M25N; M(25N); source: Hfx. volcanii transformant, in cells
B3: GvpL, entire protein, split-GFP fusion of Figure 7 (natural protein, Halobacterium salinarum, UniProt Q9HI27 1-281, looked up)
chain: MTDHRPSPEEEQTTANEERTVSNGRYLYCVVDTTSSESATLSTTGVDDNPVYVVEADGVGAVVHDCETVYETEDLEQVKRWLVTHQQVVDAASDAFGTPLPMRFDTVLEGGDASIERWLEDHYEGFRDELASFAGVWEYRINLLWDSAPFEETIADRDDRLRELRQRQQQSGAGKKFLLEKQSDQRLQELKRERRTELADQLKEAITPVVNDLTEQDTNTPLQDEHSSIEKEQIVRFAVLADEDDETALGDRLDTIVEHEGVEIRFTGPWPPYTFAPDIGK
notes: GvpL, p-vac region of Hbt. salinarum PHH1, 32 kDa; also called the entire GvpL; source: Hfx. volcanii transformant, in cells
B4: GvpG, split-GFP fusion (natural protein, Halobacterium salinarum, UniProt P24371 1-83, looked up)
chain: MFIIDDLFVSPFFSLLDILQTMALDEMYDTKSIRDDIKENQLLYEVGERSDEEYQQRKQALESQLEMAEQVQEQMRDRMEVKK
notes: GvpG, p-vac region of Hbt. salinarum PHH1; no truncation is mentioned; source: Hfx. volcanii transformant, in cells
B5: GvpH, split-GFP fusion (natural protein, Halobacterium salinarum, UniProt P24372 1-182, looked up)
chain: MVPDENDDASDDQSSQLSGLLDQLHTLVEVLADIEEEGGHRHESGRIDRGNARIDYDYDVSIGLGRADGSSYDEEPSSNRSRSEQRSGQQRTTEDSIHVETRGGTSGDELVVVADLPGVTDDDVDVALDTDEQALTLRVDDDVVERVVLDRPDVAITDMTLRNQVLEIRLARTSDTDGGEST
notes: GvpH, p-vac region of Hbt. salinarum PHH1; no truncation is mentioned; source: Hfx. volcanii transformant, in cells
B6: GvpA, entire protein, split-GFP fusion (natural protein, Halobacterium salinarum, UniProt P08958 1-76, looked up)
chain: MAQPDSSGLAEVLDRVLDKGVVVDVWARVSLVGIEILTVEARVVAASVDTFLHYAEEIAKIEQAELTAGAEAAPEA
notes: GvpA, p-vac region of Hbt. salinarum PHH1, 76 aa; also called the entire GvpA; source: Hfx. volcanii transformant, in cells
B7: GvpJ, entire protein, split-GFP fusion of Figure 7 (natural protein, Halobacterium salinarum, UniProt P24374 1-114, looked up)
chain: MSDPKPTRSQGDLAEMLEMLLDKGVVVNADIAVSVGDTELLGIELRAAIASFETAAEYGLEFPTGTDMERVESAANISPDQSDPASETQSETESTNPLSDDSTPTASTSAEETK
notes: also called the entire GvpJ; source: Hfx. volcanii transformant, in cells
B8: GvpK, split-GFP fusion (natural protein)
chain: not shown
notes: GvpK, p-vac region of Hbt. salinarum PHH1; no truncation is mentioned; source: Hfx. volcanii transformant, in cells
B9: Fragment M60–84 of GvpM, split-GFP fusion (peptide, UniProt P24377 60-84, looked up)
chain: EEWDAAHRQQSEAFTTSPTADRRED
notes: GvpM, p-vac region of Hbt. salinarum PHH1, C-terminal 25 aa; also called M25C; M(25C); source: Hfx. volcanii transformant, in cells
B10: Fragment A44–76 of GvpA, split-GFP fusion (domain or fragment, Halobacterium salinarum, UniProt P08958 44-76, looked up)
chain: VAASVDTFLHYAEEIAKIEQAELTAGAEAAPEA
notes: GvpA, p-vac region of Hbt. salinarum PHH1, residues 44–76; construct of Völkner et al. 2020; source: Hfx. volcanii transformant, in cells
B11: GvpM, entire protein, split-GFP fusion of Figure 7 (natural protein, Halobacterium salinarum, UniProt P24377 1-84, looked up)
chain: MEPTKDETHAIVEFVDVLLRDGAVIQADVIVTVADIPLIGISLRAAIAGMTTMTEYGLFEEWDAAHRQQSEAFTTSPTADRRED
notes: GvpM, p-vac region of Hbt. salinarum PHH1; printed as 83 aa and as 84 aa; also called the entire GvpM; source: Hfx. volcanii transformant, in cells

Columns and labels:
Experiment in all cases: split reporter (BiFC, NanoBiT); split-GFP (mGFP2) in Hfx. volcanii transformants, entire Gvp proteins and fragments (Figure 7); arrangement of the GFP portions not stated; relative fluorescence (rf) of cells against untransformed WR340
Details in all cases: partners not purified
[1] = biological target: T1, GvpF, entire protein, split-GFP fusion (Halobacterium salinarum, UniProt Q9HI21 1-213)
T1 construct: GvpF, p-vac region of Hbt. salinarum PHH1, 23 kDa; also called the entire GvpF; source: Hfx. volcanii transformant, in cells
T1 sequence (looked up): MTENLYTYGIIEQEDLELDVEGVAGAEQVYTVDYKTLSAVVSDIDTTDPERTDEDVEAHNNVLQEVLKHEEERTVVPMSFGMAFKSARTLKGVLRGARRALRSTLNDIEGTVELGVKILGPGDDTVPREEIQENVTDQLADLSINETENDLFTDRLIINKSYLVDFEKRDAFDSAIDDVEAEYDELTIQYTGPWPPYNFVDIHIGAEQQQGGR

[2] = biological target: T2, Fragment F1–110 of GvpF, split-GFP fusion (Halobacterium salinarum, UniProt Q9HI21 1-110)
T2 construct: GvpF, p-vac region of Hbt. salinarum PHH1, residues 1–110 (first of two domains); source: Hfx. volcanii transformant, in cells
T2 sequence (looked up): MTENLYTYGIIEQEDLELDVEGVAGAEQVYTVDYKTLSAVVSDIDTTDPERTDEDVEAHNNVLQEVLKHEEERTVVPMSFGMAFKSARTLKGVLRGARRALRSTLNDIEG

[3] = biological target: T3, Fragment J47–114 of GvpJ, split-GFP fusion (Halobacterium salinarum, UniProt P24374 47-114)
T3 construct: source: Hfx. volcanii transformant, in cells
T3 sequence (looked up): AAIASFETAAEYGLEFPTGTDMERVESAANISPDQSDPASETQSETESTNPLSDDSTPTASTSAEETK

[4] = biological target: T4, Fragment J1–56 of GvpJ, split-GFP fusion (Halobacterium salinarum, UniProt P24374 1-56)
T4 construct: GvpJ, p-vac region of Hbt. salinarum PHH1, residues 1–56; source: Hfx. volcanii transformant, in cells
T4 sequence (looked up): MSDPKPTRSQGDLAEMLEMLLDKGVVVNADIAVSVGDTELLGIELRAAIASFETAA

[5] = biological target: T4, Fragment J1–56 of GvpJ, split-GFP fusion; remark: listed apart in the source
[6] = biological target: B3
[7] = biological target: T5, Fragment L1–134 of GvpL, split-GFP fusion (Halobacterium salinarum, UniProt Q9HI27 1-134)
T5 construct: GvpL, p-vac region of Hbt. salinarum PHH1, residues 1–134 (first of two domains); source: Hfx. volcanii transformant, in cells
T5 sequence (looked up): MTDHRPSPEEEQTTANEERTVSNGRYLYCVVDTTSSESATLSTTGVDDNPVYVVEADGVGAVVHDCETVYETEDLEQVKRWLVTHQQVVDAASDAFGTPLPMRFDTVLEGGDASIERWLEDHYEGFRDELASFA

[8] = biological target: T6, Fragment L133–281 of GvpL, split-GFP fusion (Halobacterium salinarum, UniProt Q9HI27 133-281)
T6 construct: GvpL, p-vac region of Hbt. salinarum PHH1, residues 133–281 (second of two domains); source: Hfx. volcanii transformant, in cells
T6 sequence (looked up): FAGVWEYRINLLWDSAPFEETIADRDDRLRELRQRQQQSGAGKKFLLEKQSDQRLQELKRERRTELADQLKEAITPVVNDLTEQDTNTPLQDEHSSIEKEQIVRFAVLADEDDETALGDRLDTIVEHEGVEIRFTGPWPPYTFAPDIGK

[9] = biological target: T3, Fragment J47–114 of GvpJ, split-GFP …; remark: listed apart in the source

| Binder | relative fluorescence (rf) [3] [rf] | relative fluorescence (rf) [4] [rf] | relative fluorescence (rf) [8] [rf] | also measured |
| --- | --- | --- | --- | --- |
| B1 | 5 | 10 | – | relative fluorescence (rf) [1]: 41 rf; relative fluorescence (rf) [2]: < 4 rf |
| B2 | 20 | 20 | – | – |
| B3 | 11 | 20 | – | relative fluorescence (rf) [5]: 6.7 rf |
| B4 | 15 | – | < 2.6 | relative fluorescence (rf) [6]: 77.5 rf; relative fluorescence (rf) [7]: < 2.6 rf |
| B5 | 13 | – | – | – |
| B6 | – | – | – | relative fluorescence (rf) [1]: 20 rf; relative fluorescence (rf) [2]: < 4 rf |
| B7 | – | – | < 2.6 | relative fluorescence (rf) [9]: < 5 rf; relative fluorescence (rf) [7]: < 2.6 rf |
| B8 | – | – | 6.1 | relative fluorescence (rf) [6]: 7.4 rf; relative fluorescence (rf) [9]: < 5 rf |
| B9 | 20 | 20 | – | – |
| B10 | 5 | – | – | – |
| B11 | – | – | < 2.6 | relative fluorescence (rf) [9]: < 5 rf; relative fluorescence (rf) [7]: < 2.6 rf |
